According to publication PMC4772114, “Structural basis for the regulation of enzymatic activity of Regnase-1 by domain-domain interactions” (Scientific Reports, 2016):
One block for each binder: values may come before it.

Assays:
[1] = target: T1, Regnase-1 PIN domain, catalytically inactive monomeric mutant (DDNN and D278R) (Mus musculus, UniProt Q5D1E7 134-295, D226N | D244N | D278R); assay: NMR titration; 1H-15N HSQC of 15N-labeled NTD at 100 uM with unlabeled PIN (DDNN, D278R) added (3 or 6 molar equivalents); 298 K; apparent Kd from the titration curve of L58; conditions: both partners purified
T1 construct: Regnase-1 (Zc3h12a), Mus musculus, PIN domain; the discussion gives PIN as residues 134-295; Limits as for m1; Uniformly 15N-labelled or unlabelled in the NMR experiments; not shown: GST, N-terminal, cleaved
T1 sequence (looked up): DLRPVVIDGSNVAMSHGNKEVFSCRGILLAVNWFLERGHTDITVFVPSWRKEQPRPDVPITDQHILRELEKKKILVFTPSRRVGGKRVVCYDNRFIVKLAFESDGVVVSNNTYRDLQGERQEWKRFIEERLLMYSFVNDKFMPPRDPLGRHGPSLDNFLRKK

Regnase-1 ZF domain = target: T2, Regnase-1 ZF domain (Mus musculus, UniProt Q5D1E7 299-339); assay: NMR titration (1H-15N HSQC, Y314); Zn2+-bound ZF; 100 uM ZF; apparent Kd; EMSA: 20 mM HEPES-NaOH pH 6.8, 150 mM NaCl, 1 mM DTT, 10% glycerol, 0.1% NP-40, 4 C, 30 min; NMR buffer not in material; conditions: protein: recombinant; tags: GST removed (HRV-3C), 15N-labeled
T2 chain: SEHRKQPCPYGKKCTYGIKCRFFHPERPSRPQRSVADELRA

[2] = target: the molecule itself; assay: not stated; Kd of PIN-PIN told in the discussion only; how it was estimated is not told
[3] = target: the molecule itself; assay: SEC; gel filtration of the PIN domain and its mutants; elution volume compared with standard marker proteins; concentration dependent, 20-200 uM range
[4] = target: the molecule itself; assay: crystal structure; PIN-ZF (134-339), sitting drop vapor diffusion at 20 C; form I (P3_121, selenomethionine-labeled) and form II (P3_221, native)

- Kd [1]: 110 ± 5.8 µM
B1: Regnase-1 N-terminal domain (NTD) (domain or fragment, Mus musculus)
chain: TSELQMKVDFFRKLGYSSSEIHSVLQKLGVQADTNTVLGELVKHG
notes: Regnase-1 (Zc3h12a), Mus musculus, N-terminal domain; residues 90-133 are called the connection between the NTD and PIN; Uniformly 15N-labelled or unlabelled in the NMR experiments; not shown: GST, N-terminal, cleaved

B2: IL-6 mRNA 3'UTR (82-106) (ssRNA)
RNA: UGUUGUUCUCUACGAAGAACUGACA
- Kd (Regnase-1 ZF domain): 10 ± 1.1 µM

B3: Regnase-1 PIN domain, wild type (domain or fragment, Mus musculus, UniProt Q5D1E7 134-295, looked up)
chain: DLRPVVIDGSNVAMSHGNKEVFSCRGILLAVNWFLERGHTDITVFVPSWRKEQPRPDVPITDQHILRELEKKKILVFTPSRRVGGKRVVCYDDRFIVKLAFESDGVVVSNDTYRDLQGERQEWKRFIEERLLMYSFVNDKFMPPDDPLGRHGPSLDNFLRKK
notes: Regnase-1 (Zc3h12a, MCPIP1), Mus musculus, PIN domain; the discussion gives PIN as residues 134-295; The limits 134-295 are told for the PIN domain in the discussion, not expressly for the construct; 15N-labelled for NMR; also called PilT N-terminus like domain; not shown: GST, N-terminal, cleaved
- Kd [2]: ~100 µM

B4: Regnase-1 PIN domain R215E (domain or fragment, Mus musculus, UniProt Q5D1E7 134-295, looked up)
chain: DLRPVVIDGSNVAMSHGNKEVFSCRGILLAVNWFLERGHTDITVFVPSWRKEQPRPDVPITDQHILRELEKKKILVFTPSREVGGKRVVCYDDRFIVKLAFESDGVVVSNDTYRDLQGERQEWKRFIEERLLMYSFVNDKFMPPDDPLGRHGPSLDNFLRKK
notes: Regnase-1 (Zc3h12a), Mus musculus, PIN domain; the discussion gives PIN as residues 134-295; Limits as for m1; not shown: GST, N-terminal, cleaved
- binding result [3]: binds

B5: Regnase-1 PIN-ZF (residues 134-339) (domain or fragment, Mus musculus, UniProt Q5D1E7 134-339, looked up)
chain: DLRPVVIDGSNVAMSHGNKEVFSCRGILLAVNWFLERGHTDITVFVPSWRKEQPRPDVPITDQHILRELEKKKILVFTPSRRVGGKRVVCYDDRFIVKLAFESDGVVVSNDTYRDLQGERQEWKRFIEERLLMYSFVNDKFMPPDDPLGRHGPSLDNFLRKKPLPSEHRKQPCPYGKKCTYGIKCRFFHPERPSRPQRSVADELRA
modifications: selenomethionine-labeled (form I crystals); native (form II crystals)
notes: Regnase-1 (Zc3h12a), Mus musculus, PIN and ZF domains, residues 134-339; Electron density was observed only for the PIN domain; also called fragment containing both the PIN and ZF domains; not shown: GST, N-terminal, cleaved
- binding result [4]: binds
